Experimental data published in publication PMC13397619.

B1: NLV2 TCR alpha chain (CDR3α only) (parent)
chain: AGPMKTSYDKVI
partner: NLVGMVATV

Variants of: B1
Experiment: T-Switch: Jurkat TCRβ−/− cells expressing a CDR3 saturation-mutagenesis library, stained with two peptide-HLA-A*02:01 tetramers (original and novel peptide) plus anti-CD3, FACS-sorted into four gates, gDNA sequenced
Settings: with HLA-A*02:01 with peptide … (NLV 2-2, the original bait), tetramers 1 µg/mL, 30 min on ice, DP and SW gates expanded about 10 days between rounds ('two to three rounds of selection' in the Methods), gate SP: higher = more of the variant in the gate that binds the original peptide and not the novel one = retained original binding. Fold enrichment of the CDR3 variant in one FACS gate of a two-tetra, unresolved parent, parent is a CDR3 fragment, scale: fold enrichment, numbering: sequential-on-construct, sequence …

| Variant | enrichment |
| --- | --- |
| […] (CDR3 as printed); M4P derived by comparing it with the table's wild-type CDR3 AGPMKTSYDKVI | 0 |
| […] (CDR3 as printed); S7N derived by comparing it with the table's wild-type CDR3 AGPMKTSYDKVI | 0 |
| […] (CDR3 as printed); S7E derived by comparing it with the table's wild-type CDR3 AGPMKTSYDKVI | 0 |
| […] (CDR3 as printed); S7I derived by comparing it with the table's wild-type CDR3 AGPMKTSYDKVI | 0 |
| […] (CDR3 as printed); K5N derived by comparing it with the table's wild-type CDR3 AGPMKTSYDKVI | 0 |
| […] (CDR3 as printed); G2V derived by comparing it with the table's wild-type CDR3 AGPMKTSYDKVI | 0 |
| […] (CDR3 as printed); M4Y derived by comparing it with the table's wild-type CDR3 AGPMKTSYDKVI | 0.292 |
| […] (CDR3 as printed); G2T derived by comparing it with the table's wild-type CDR3 AGPMKTSYDKVI | 10.1 |
| […] (CDR3 as printed); S7M derived by comparing it with the table's wild-type CDR3 AGPMKTSYDKVI | 0 |
| […] (CDR3 as printed); D9L derived by comparing it with the table's wild-type CDR3 AGPMKTSYDKVI | 0 |
| […] (CDR3 as printed); T6I derived by comparing it with the table's wild-type CDR3 AGPMKTSYDKVI | 9.21 |
| […] (CDR3 as printed); S7R derived by comparing it with the table's wild-type CDR3 AGPMKTSYDKVI | 0 |
| […] (CDR3 as printed); P3N derived by comparing it with the table's wild-type CDR3 AGPMKTSYDKVI | 0.173 |
| […] (CDR3 as printed); G2N derived by comparing it with the table's wild-type CDR3 AGPMKTSYDKVI | 0 |
| […] (CDR3 as printed); K5D derived by comparing it with the table's wild-type CDR3 AGPMKTSYDKVI | 37.8 |
| […] (CDR3 as printed); I12F derived by comparing it with the table's wild-type CDR3 AGPMKTSYDKVI | 2.21 |
| […] (CDR3 as printed); K5C derived by comparing it with the table's wild-type CDR3 AGPMKTSYDKVI | 0 |
| […] (CDR3 as printed); K10E derived by comparing it with the table's wild-type CDR3 AGPMKTSYDKVI | 0 |
| […] (CDR3 as printed); S7D derived by comparing it with the table's wild-type CDR3 AGPMKTSYDKVI | 0 |
| […] (CDR3 as printed); A1T derived by comparing it with the table's wild-type CDR3 AGPMKTSYDKVI | 0.262 |
| […] (CDR3 as printed); G2I derived by comparing it with the table's wild-type CDR3 AGPMKTSYDKVI | 0 |

| Variant | enrichment |
| --- | --- |
| […] (CDR3 as printed); P3H derived by comparing it with the table's wild-type CDR3 AGPMKTSYDKVI | 0 |
| […] (CDR3 as printed); I12Y derived by comparing it with the table's wild-type CDR3 AGPMKTSYDKVI | 0 |
| […] (CDR3 as printed); P3E derived by comparing it with the table's wild-type CDR3 AGPMKTSYDKVI | 0.526 |
| […] (CDR3 as printed); K10S derived by comparing it with the table's wild-type CDR3 AGPMKTSYDKVI | 0 |
| […] (CDR3 as printed); K5P derived by comparing it with the table's wild-type CDR3 AGPMKTSYDKVI | 9.21 |
| […] (CDR3 as printed); K5T derived by comparing it with the table's wild-type CDR3 AGPMKTSYDKVI | 4.91 |
| […] (CDR3 as printed); P3M derived by comparing it with the table's wild-type CDR3 AGPMKTSYDKVI | 0 |
| […] (CDR3 as printed); T6K derived by comparing it with the table's wild-type CDR3 AGPMKTSYDKVI | 0 |
| […] (CDR3 as printed); G2S derived by comparing it with the table's wild-type CDR3 AGPMKTSYDKVI | 0 |
| […] (CDR3 as printed); G2F derived by comparing it with the table's wild-type CDR3 AGPMKTSYDKVI | 0 |
| […] (CDR3 as printed); K5Y derived by comparing it with the table's wild-type CDR3 AGPMKTSYDKVI | 0 |
| […] (CDR3 as printed); A1W derived by comparing it with the table's wild-type CDR3 AGPMKTSYDKVI | 0 |
| […] (CDR3 as printed); M4E derived by comparing it with the table's wild-type CDR3 AGPMKTSYDKVI | 27 |
| […] (CDR3 as printed); M4D derived by comparing it with the table's wild-type CDR3 AGPMKTSYDKVI | 0 |
| […] (CDR3 as printed); G2Q derived by comparing it with the table's wild-type CDR3 AGPMKTSYDKVI | 0 |
| […] (CDR3 as printed); K10N derived by comparing it with the table's wild-type CDR3 AGPMKTSYDKVI | 0 |
| […] (CDR3 as printed); P3L derived by comparing it with the table's wild-type CDR3 AGPMKTSYDKVI | 0 |
| […] (CDR3 as printed); I12M derived by comparing it with the table's wild-type CDR3 AGPMKTSYDKVI | 0 |
| […] (CDR3 as printed); S7F derived by comparing it with the table's wild-type CDR3 AGPMKTSYDKVI | 0 |
| […] (CDR3 as printed); I12R derived by comparing it with the table's wild-type CDR3 AGPMKTSYDKVI | 0 |
| […] (CDR3 as printed); T6C derived by comparing it with the table's wild-type CDR3 AGPMKTSYDKVI | 0 |
